Data from the supplement of paper PMC11316812.
± gives the standard deviation of the averaged measurements.

What was measured:
MCF7 = experiment: percentage of EdU-negative (G0-arrested) nuclei per well, 72 h; higher = more G0 arrest; details: reference: sequence is the full UniProt precursor, the tested protein was the secreted form or ectodomain
hTERT-HMEC = experiment: as above; details: reference: sequence is the full UniProt precursor, the tested protein was the secreted form or ectodomain
[1] = protein concentration 0.00975 µM
[2] = protein concentration 0.0975 µM
[3] = protein concentration 0.0225 µM
[4] = protein concentration 0.01125 µM
[5] = protein concentration 0.1125 µM
[6] = protein concentration 0.0145714 µM
[7] = protein concentration 0.145714 µM
[8] = protein concentration 0.02632 µM
[9] = protein concentration 0.2632 µM
[10] = protein concentration 0.0260325 µM
[11] = protein concentration 0.260325 µM
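Further: secreted proteins added to cultured cells, EdU pulse at the end, nuclei found by Hoechst imaging, EdU status from nuclear versus surrounding ring intensity ratio, PBS as neutral control.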

MASSWKLMLFLSVTMCLSEYSKSLPGLSTSYAALLRIKKSSSSSLFGSKTRPRYSSPSLGTLSASSPSWLGAAQNYYSPINLYHSSDAFKQDESVDYGPVFVQEPDDIIFPTDSDEKKVALNCEVRGNPVPSYRWLRNGTEIDLESDYRYSLIDGTFIISNPSEAKDSGHYQCLATNTVGSILSREATLQFAYLGNFSGRTRSAVSVREGQGVVLMCSPPPHSPEIIYSWVFNEFPSFVAEDSRRFISQETGNLYISKVQTSDVGSYICLVKNTVTNARVLSPPTPLTLRNDGVMGEYEPKIEVHFPFTVTAAKGTTVKMECFALGNPVPTITWMKVNGYIPSKARLRKSQAVLEIPNVQLDDAGIYECRAENSRGKNSFRGQLQVYTYPHWVEKLNDTQLDSGSPLRWECKATGKPRPTYRWLKNGVPLSPQSRVEMVNGVLMIHNVNQSDAGMYQCLAENKYGAIYASAELKILASAPTFALNQLKKTIIVTKDQEVVIECKPQGSPKPTISWKKGDRAVRENKRIAILPDGSLRILNASKSDEGKYVCRGENVFGSAEIIASLSVKEPTRIELTPKRTELTVGESIVLNCKAIHDASLDVTFYWTLKGQPIDFEEEGGHFESIRAQASSADLMIRNILLMHAGRYGCRVQTTADSVSDEAELLVRGPPGPPGIVIVEEITESTATLSWSPAADNHSPISSYNLQARSPFSLGWQTVKTVPEIITGDMESAMAVDLNPWVEYEFRVVATNPIGTGDPSTPSRMIRTNEAVPKTAPTNVSGRSGRRHELVIAWEPVSEEFQNGEGFGYIVAFRPNGTRGWKEKMVTSSEASKFIYRDESVPPLTPFEVKVGVYNNKGDGPFSQIVVICSAEGEPSAAPTDVKATSVSVSEILVAWKHIKESLGRPQGFEVGYWKDMEQEDTAETVKTRGNESFVILTGLEGNTLYHFTVRAYNGAGYGPPSSEVSATTKKSPPSQAPSNLRWEQQGSQVSLGWEPVIPLANESEVVGYKVFYRQEGHSNSQVIETQKLQAVVPLPDAGVYIIEVRAYSEGGDGTASSQIRVPSYSGGKITSAQSTLHSLSTSSSSVTLLLALMIPSTSW
percentage of EdU-negative (MCF7; [1]): 26.6 ± 0.15% | percentage of EdU-negative (MCF7; [2]): 27.7 ± 2.5% | percentage of EdU-negative (hTERT-HMEC; [1]): 4.88 ± 0.2% | percentage of EdU-negative (hTERT-HMEC; [2]): 10.4 ± 0.39%

MGLWGQSVPTASSARAGRYPGARTASGTRPWLLDPKILKFVVFIVAVLLPVRVDSATIPRQDEVPQQTVAPQQQRRSLKEEECPAGSHRSEYTGACNPCTEGVDYTIASNNLPSCLLCTVCKSGQTNKSSCTTTRDTVCQCEKGSFQDKNSPEMCRTCRTGCPRGMVKVSNCTPRSDIKCKNESAASSTGKTPAAEETVTTILGMLASPYHYLIIIVVLVIILAVVVVGFSCRKKFISYLKGICSGGGGGPERVHRVLFRRRSCPSRVPGAEDNARNETLSNRYLQPTQVSEQEIQGQELAELTGVTVELPEEPQRLLEQAEAEGCQRRRLLVPVNDADSADISTLLDASATLEEGHAKETIQDQLVGSEKLFYEEDEAGSATSCL [Q9UBN6]
percentage of EdU-negative (MCF7; [3]): 24 ± 0.81% | percentage of EdU-negative (MCF7; protein concentration 0.225 µM): 24.3 ± 2% | percentage of EdU-negative (hTERT-HMEC; [3]): 4.16 ± 0.28% | percentage of EdU-negative (hTERT-HMEC; protein concentration 0.225 µM): 4.86 ± 0.69%

MSALWLLLGLLALMDLSESSNWGCYGNIQSLDTPGASCGIGRRHGLNYCGVRASERLAEIDMPYLLKYQPMMQTIGQKYCMDPAVIAGVLSRKSPGDKILVNMGDRTSMVQDPGSQAPTSWISESQVSQTTEVLTTRIKEIQRRFPTWTPDQYLRGGLCAYSGGAGYVRSSQDLSCDFCNDVLARAKYLKRHGF [Q8N1E2]
percentage of EdU-negative (MCF7; [3]): 25.6 ± 2% | percentage of EdU-negative (MCF7; protein concentration 0.225 µM): 25.2 ± 0.58% | percentage of EdU-negative (hTERT-HMEC; [3]): 4.76 ± 1.4% | percentage of EdU-negative (hTERT-HMEC; protein concentration 0.225 µM): 6.97 ± 0.29%

MKSFLLVVNALALTLPFLAVEVQNQKQPACHENDERPFYQKTAPYVPMYYVPNSYPYYGTNLYQRRPAIAINNPYVPRTYYANPAVVRPHAQIPQRQYLPNSHPPTVVRRPNLHPSFIAIPPKKIQDKIIIPTINTIATVEPTPAPATEPTVDSVVTPEAFSESIITSTPETTTVAVTPPTA
percentage of EdU-negative (MCF7; protein concentration 0.01 µM): 24.6 ± 1.5% | percentage of EdU-negative (MCF7; protein concentration 0.1 µM): 25.6 ± 1.9% | percentage of EdU-negative (hTERT-HMEC; protein concentration 0.01 µM): 5.78 ± 0.51% | percentage of EdU-negative (hTERT-HMEC; protein concentration 0.1 µM): 5.65 ± 0.83%

MGCLLFLLLWALLQAWGSAEVPQRLFPLRCLQISSFANSSWTRTDGLAWLGELQTHSWSNDSDTVRSLKPWSQGTFSDQQWETLQHIFRVYRSSFTRDVKEFAKMLRLSYPLELQVSAGCEVHPGNASNNFFHVAFQGKDILSFQGTSWEPTQEAPLWVNLAIQVLNQDKWTRETVQWLLNGTCPQFVSGLLESGKSELKKQVKPKAWLSRGPSPGPGRLLLVCHVSGFYPKPVWVKWMRGEQEQQGTQPGDILPNADETWYLRATLDVVAGEAAGLSCRVKHSSLEGQDIVLYWGGSYTSMGLIALAVLACLLFLLIVGFTSRFKRQTSYQGVL
percentage of EdU-negative (MCF7; [3]): 23.9 ± 2.6% | percentage of EdU-negative (MCF7; protein concentration 0.225 µM): 27.61 ± 0.11% | percentage of EdU-negative (hTERT-HMEC; [3]): 4.97 ± 0.24% | percentage of EdU-negative (hTERT-HMEC; protein concentration 0.225 µM): 5.04 ± 0.17%

MGSPRSALSCLLLHLLVLCLQAQEGPGRGPALGRELASLFRAGREPQGVSQQHVREQSLVTDQLSRRLIRTYQLYSRTSGKHVQVLANKRINAMAEDGDPFAKLIVETDTFGSRVRVRGAETGLYICMNKKGKLIAKSNGKGKDCVFTEIVLENNYTALQNAKYEGWYMAFTRKGRPRKGSKTRQHQREVHFMKRLPRGHHTTEQSLRFEFLNYPPFTRSLRGSQRTWAPEPR
percentage of EdU-negative (MCF7; [4]): 25.1 ± 1.4% | percentage of EdU-negative (MCF7; [5]): 25.58 ± 0.037% | percentage of EdU-negative (hTERT-HMEC; [4]): 5.64 ± 0.65% | percentage of EdU-negative (hTERT-HMEC; [5]): 11 ± 1.7%

MNQKTILVLLILAVITIFALVCVLLVGRGGDGGEPSQLPHCPSVSPSAQPWTHPGQSQLFADLSREELTAVMRFLTQRLGPGLVDAAQARPSDNCVFSVELQLPPKAAALAHLDRGSPPPAREALAIVFFGRQPQPNVSELVVGPLPHPSYMRDVTVERHGGPLPYHRRPVLFQEYLDIDQMIFNRELPQASGLLHHCCFYKHRGRNLVTMTTAPRGLQSGDRATWFGLYYNISGAGFFLHHVGLELLVNHKALDPARWTIQKVFYQGRYYDSLAQLEAQFEAGLVNVVLIPDNGTGGSWSLKSPVPPGPAPPLQFYPQGPRFSVQGSRVASSLWTFSFGLGAFSGPRIFDVRFQGERLVYEISLQEALAIYGGNSPAAMTTRYVDGGFGMGKYTTPLTRGVDCPYLATYVDWHFLLESQAPKTIRDAFCVFEQNQGLPLRRHHSDLYSHYFGGLAETVLVVRSMSTLLNYDYVWDTVFHPSGAIEIRFYATGYISSAFLFGATGKYGNQVSEHTLGTVHTHSAHFKVDLDVAGLENWVWAEDMVFVPMAVPWSPEHQLQRLQVTRKLLEMEEQAAFLVGSATPRYLYLASNHSNKWGHPRGYRIQMLSFAGEPLPQNSSMARGFSWERYQLAVTQRKEEEPSSSSVFNQNDPWAPTVDFSDFINNETIAGKDLVAWVTAGFLHIPHAEDIPNTVTVGNGVGFFLRPYNFFDEDPSFYSADSIYFRGDQDAGACEVNPLACLPQAAACAPDLPAFSHGGFSHN
percentage of EdU-negative (MCF7; [6]): 22.8 ± 0.3% | percentage of EdU-negative (MCF7; [7]): 26.8 ± 0.78% | percentage of EdU-negative (hTERT-HMEC; [6]): 5.32 ± 0.3% | percentage of EdU-negative (hTERT-HMEC; [7]): 6.82 ± 0.15%

MRGLLVLSVLLGAVFGKEDFVGHQVLRISVADEAQVQKVKELEDLEHLQLDFWRGPAHPGSPIDVRVPFPSIQAVKIFLESHGISYETMIEDVQSLLDEEQEQMFAFRSRARSTDTFNYATYHTLEEIYDFLDLLVAENPHLVSKIQIGNTYEGRPIYVLKFSTGGSKRPAIWIDTGIHSREWVTQASGVWFAKKITQDYGQDAAFTAILDTLDIFLEIVTNPDGFAFTHSTNRMWRKTRSHTAGSLCIGVDPNRNWDAGFGLSGASSNPCSETYHGKFANSEVEVKSIVDFVKDHGNIKAFISIHSYSQLLMYPYGYKTEPVPDQDELDQLSKAAVTALASLYGTKFNYGSIIKAIYQASGSTIDWTYSQGIKYSFTFELRDTGRYGFLLPASQIIPTAKETWLALLTIMEHTLNHPY
percentage of EdU-negative (MCF7; [8]): 25.44 ± 0.046% | percentage of EdU-negative (MCF7; [9]): 27.3 ± 3% | percentage of EdU-negative (hTERT-HMEC; [8]): 5.61 ± 0.74% | percentage of EdU-negative (hTERT-HMEC; [9]): 8.13 ± 1.2%

MTGLCGYSAPDMRGLRLIMIPVELLLCYLLLHPVDATSYGKQTNVLMHFPLSLESQTPSSDPLSCQFLHPKSLPGFSHMAPLPKFLVSLALRNALEEAGCQADVWALQLQLYRQGGVNATQVLIQHLRGLQKGRSTERNVSVEALASALQLLAREQQSTGRVGRSLPTEDCENEKEQAVHNVVQLLPGVGTFYNLGTALYYATQNCLGKARERGRDGAIDLGYDLLMTMAGMSGGPMGLAISAALKPALRSGVQQLIQYYQDQKDANISQPETTKEGLRAISDVSDLEETTTLASFISEVVSSAPYWGWAIIKSYDLDPGAGSLEI
percentage of EdU-negative (MCF7; [3]): 26.5 ± 0.29% | percentage of EdU-negative (MCF7; protein concentration 0.225 µM): 30.7 ± 0.48% | percentage of EdU-negative (hTERT-HMEC; [3]): 5.166 ± 0.011% | percentage of EdU-negative (hTERT-HMEC; protein concentration 0.225 µM): 19.7 ± 0.93%

MGGPRALLAALWALEAAGTAALRIGAFNIQSFGDSKVSDPACGSIIAKILAGYDLALVQEVRDPDLSAVSALMEQINSVSEHEYSFVSSQPLGRDQYKEMYLFVYRKDAVSVVDTYLYPDPEDVFSREPFVVKFSAPGTGERAPPLPSRRALTPPPLPAAAQNLVLIPLHAAPHQAVAEIDALYDVYLDVIDKWGTDDMLFLGDFNADCSYVRAQDWAAIRLRSSEVFKWLIPDSADTTVGNSDCAYDRIVACGARLRRSLKPQSATVHDFQEEFGLDQTQALAISDHFPVEVTLKFHR
percentage of EdU-negative (MCF7; [10]): 25.9 ± 0.85% | percentage of EdU-negative (MCF7; [11]): 23.9 ± 1.7% | percentage of EdU-negative (hTERT-HMEC; [10]): 4.97 ± 0.32% | percentage of EdU-negative (hTERT-HMEC; [11]): 5.04 ± 0.098%
